Publication PMC13181761, “New Analogs of the Compstatin Family of Clinical Complement Inhibitors with Low Picomolar Target Affinity” (Journal of Medicinal Chemistry, 2026)

Columns and labels:
[1] = target: human C3b (human) (UniProt P01024); test: SPR; Biacore T200; human C3b amine-coupled; multicycle kinetics, serial 2-fold dilutions of peptide, 120 s injection, 180 s dissociation, regeneration 1 M NaCl; 25 °C, HBST pH 7.4; Langmuir 1:1 fit, KD = kd/ka; mean of 3 experiments
[2] = target: human C3b (human) (UniProt P01024); test: SPR; Biacore T200; human C3b amine-coupled; 25 °C, HBST pH 7.4; KD determined as steady state affinity
[3] = target: human C3b (human) (UniProt P01024)
[4] = target: human C3b (human) (UniProt P01024); test: SPR; Biacore T200; human C3b amine-coupled; single-cycle kinetics, 5 increasing concentrations (0.5-40 nM), final dissociation 100-240 min; 25 °C, HBST pH 7.4; global Langmuir 1:1 fit; mean of 3 experiments
[5] = target: human C3b (human) (UniProt P01024); remark: listed apart in the source

Cp01 Arg11Lys analog (peptide)
Kd [1]: 502 nM
koff [1]: 0.15 s⁻¹
kon [1]: 300000 M⁻¹ s⁻¹

Cp01 Arg11Ser analog (peptide)
Kd [1]: 529 nM
koff [1]: 0.16 s⁻¹
kon [1]: 330000 M⁻¹ s⁻¹

Cp01 Asp6Asn analog (peptide)
Kd [1]: 219 nM
koff [1]: 0.11 s⁻¹
kon [1]: 540000 M⁻¹ s⁻¹

Cp01 Asp6Glu analog (peptide)
Kd [1]: 528 nM
koff [1]: 0.18 s⁻¹
kon [1]: 380000 M⁻¹ s⁻¹

Cp01 Asp6Ser analog (peptide)
Kd [1]: 609 nM
koff [1]: 0.18 s⁻¹
kon [1]: 310000 M⁻¹ s⁻¹

Cp01 Val3Leu analog (peptide)
Kd [1]: 552 nM
koff [1]: 0.11 s⁻¹
kon [1]: 200000 M⁻¹ s⁻¹

Cp01 aIle3 analog (peptide)
Kd [2]: 545 nM

Cp01-V3I (peptide)
IC50 of inhibition of alternative pathway complement activation (AP ELISA, diluted normal human serum; the target in serum is C3) [3]: 200 nM
IC50 of inhibition of classical pathway complement activation (CP ELISA, diluted normal human serum; the target in serum is C3) [3]: 430 nM
Kd [1]: 19.8 nM
koff [1]: 0.017 s⁻¹
kon [1]: 880000 M⁻¹ s⁻¹

Cp05 Ile3 analog (peptide)
Kd [1]: 1.5 nM
koff [1]: 0.002 s⁻¹
kon [1]: 1.14e+06 M⁻¹ s⁻¹

Cp40 aIle3 analog (peptide)
Kd [4]: 15.6 nM
koff [4]: 0.007 s⁻¹
kon [4]: 460000 M⁻¹ s⁻¹

compstatin analog Cp01 (peptide)
IC50 of inhibition of alternative pathway complement activation (AP ELISA, diluted normal human serum; the target in serum is C3) [3]: 1400 nM
IC50 of inhibition of classical pathway complement activation (CP ELISA, diluted normal human serum; the target in serum is C3) [3]: 20000 nM

compstatin analog Cp05 (peptide)
Kd [1]: 46.8 nM
koff [1]: 0.014 s⁻¹
kon [1]: 300000 M⁻¹ s⁻¹

compstatin analog Cp40 (peptide)
IC50 of inhibition of classical pathway complement activation (CP ELISA, 5% human serum) [5]: 158 nM
Kd [4]: 0.7 nM
koff [4]: 0.001 s⁻¹
kon [4]: 1.76e+06 M⁻¹ s⁻¹

compstatin analog Cp60 (peptide)
IC50 of inhibition of classical pathway complement activation (CP ELISA, 5% human serum) [5]: 97 nM
Kd [4]: 0.08 nM
koff [4]: 0.0001 s⁻¹
kon [4]: 1.76e+06 M⁻¹ s⁻¹
target residence [4]: > 100 min
